Results as given in patent publication US12630600B2 (MEDIMMUNE LIMITED, priority 2022, dated 2026).
Starred links: 1 amine or outer side, 2 acyl side, 3 side chain; linkers in the order of their positions; H or OH if unused. Non-standard residues stand in square brackets, D forms with d. Groups on a side chain read outwards from the residue. No end group written: not given here. *: point of attachment. C20 diacid = O=C(O)CCCCCCCCCCCCCCCCCCC(=O)*; C18 diacid = O=C(O)CCCCCCCCCCCCCCCCC(=O)*; γGlu = O=C(O)[C@H](CCC(=O)[*:2])N[*:1]; αMeF = C[C@](N)(Cc1ccccc1)C(=O)O; AEEA = NCCOCCOCC(=O)O; Aib = CC(C)(N)C(=O)O

Tests used:
human GLP-1 receptor = human GLP-1 receptor (human, UniProt P43220); assay: cell-based or functional assay
human glucagon receptor = human glucagon receptor (human, UniProt P47871); assay: cell-based or functional assay

cAMP production EC50 (human GLP-1 receptor) [nM]	cAMP production EC50 (human glucagon receptor) [nM]	Binder
0.219	0.0904	H[Aib]QGTFTSDVSK[αMeF]LDTK([AEEA-AEEA-γGlu-C20 diacid])RAQDFVQWLL[Aib]E-NH2 (N-terminus assumed; SMILES CC(C)C[C@H](NC(=O)[C@H](Cc1c[nH]c2ccccc12)NC(=O)[C@H](CCC(N)=O)NC(=O)[C@@H](NC(=O)[C@H](Cc1ccccc1)NC(=O)[C@H](CC(=O)O)NC(=O)[C@H](CCC(N)=O)NC(=O)[C@H](C)NC(=O)[C@H](CCCNC(=N)N)NC(=O)[C@H](CCCCNC(=O)COCCOCCNC(=O)COCCOCCNC(=O)CC[C@H](NC(=O)CCCCCCCCCCCCCCCCCCC(=O)O)C(=O)O)NC(=O)[C@@H](NC(=O)[C@H](CC(=O)O)NC(=O)[C@H](CC(C)C)NC(=O)[C@](C)(Cc1ccccc1)NC(=O)[C@H](CCCCN)NC(=O)[C@H](CO)NC(=O)[C@@H](NC(=O)[C@H](CC(=O)O)NC(=O)[C@H](CO)NC(=O)[C@@H](NC(=O)[C@H](Cc1ccccc1)NC(=O)[C@@H](NC(=O)CNC(=O)[C@H](CCC(N)=O)NC(=O)C(C)(C)NC(=O)[C@@H](N)Cc1c[nH]cn1)[C@@H](C)O)[C@@H](C)O)C(C)C)[C@@H](C)O)C(C)C)C(=O)N[C@@H](CC(C)C)C(=O)NC(C)(C)C(=O)N[C@@H](CCC(=O)O)C(N)=O) [Peptide 485]
0.069	0.396	H[Aib]QGTFTSDVSK[αMeF]LDTK([AEEA-AEEA-γGlu-C20 diacid])RARDFVQWLL[Aib]TE-NH2 (N-terminus assumed; SMILES CC(C)C[C@H](NC(=O)[C@H](Cc1c[nH]c2ccccc12)NC(=O)[C@H](CCC(N)=O)NC(=O)[C@@H](NC(=O)[C@H](Cc1ccccc1)NC(=O)[C@H](CC(=O)O)NC(=O)[C@H](CCCNC(=N)N)NC(=O)[C@H](C)NC(=O)[C@H](CCCNC(=N)N)NC(=O)[C@H](CCCCNC(=O)COCCOCCNC(=O)COCCOCCNC(=O)CC[C@H](NC(=O)CCCCCCCCCCCCCCCCCCC(=O)O)C(=O)O)NC(=O)[C@@H](NC(=O)[C@H](CC(=O)O)NC(=O)[C@H](CC(C)C)NC(=O)[C@](C)(Cc1ccccc1)NC(=O)[C@H](CCCCN)NC(=O)[C@H](CO)NC(=O)[C@@H](NC(=O)[C@H](CC(=O)O)NC(=O)[C@H](CO)NC(=O)[C@@H](NC(=O)[C@H](Cc1ccccc1)NC(=O)[C@@H](NC(=O)CNC(=O)[C@H](CCC(N)=O)NC(=O)C(C)(C)NC(=O)[C@@H](N)Cc1c[nH]cn1)[C@@H](C)O)[C@@H](C)O)C(C)C)[C@@H](C)O)C(C)C)C(=O)N[C@@H](CC(C)C)C(=O)NC(C)(C)C(=O)N[C@H](C(=O)N[C@@H](CCC(=O)O)C(N)=O)[C@@H](C)O) [Peptide 490]
0.0655	0.164	H[Aib]QGTFTSDVSK[αMeF]LDTK([AEEA-AEEA-γGlu-C18 diacid])RARDFVQWLL[Aib]TE-OH (N-terminus assumed; SMILES CC(C)C[C@H](NC(=O)[C@H](Cc1c[nH]c2ccccc12)NC(=O)[C@H](CCC(N)=O)NC(=O)[C@@H](NC(=O)[C@H](Cc1ccccc1)NC(=O)[C@H](CC(=O)O)NC(=O)[C@H](CCCNC(=N)N)NC(=O)[C@H](C)NC(=O)[C@H](CCCNC(=N)N)NC(=O)[C@H](CCCCNC(=O)COCCOCCNC(=O)COCCOCCNC(=O)CC[C@H](NC(=O)CCCCCCCCCCCCCCCCC(=O)O)C(=O)O)NC(=O)[C@@H](NC(=O)[C@H](CC(=O)O)NC(=O)[C@H](CC(C)C)NC(=O)[C@](C)(Cc1ccccc1)NC(=O)[C@H](CCCCN)NC(=O)[C@H](CO)NC(=O)[C@@H](NC(=O)[C@H](CC(=O)O)NC(=O)[C@H](CO)NC(=O)[C@@H](NC(=O)[C@H](Cc1ccccc1)NC(=O)[C@@H](NC(=O)CNC(=O)[C@H](CCC(N)=O)NC(=O)C(C)(C)NC(=O)[C@@H](N)Cc1c[nH]cn1)[C@@H](C)O)[C@@H](C)O)C(C)C)[C@@H](C)O)C(C)C)C(=O)N[C@@H](CC(C)C)C(=O)NC(C)(C)C(=O)N[C@H](C(=O)N[C@@H](CCC(=O)O)C(=O)O)[C@@H](C)O) [Peptide 487]
0.202	0.301	H[Aib]QGTFTSDVSK[αMeF]LDTK([AEEA-AEEA-γGlu-C20 diacid])RARDFVQWLL[Aib]TE-OH (N-terminus assumed; SMILES CC(C)C[C@H](NC(=O)[C@H](Cc1c[nH]c2ccccc12)NC(=O)[C@H](CCC(N)=O)NC(=O)[C@@H](NC(=O)[C@H](Cc1ccccc1)NC(=O)[C@H](CC(=O)O)NC(=O)[C@H](CCCNC(=N)N)NC(=O)[C@H](C)NC(=O)[C@H](CCCNC(=N)N)NC(=O)[C@H](CCCCNC(=O)COCCOCCNC(=O)COCCOCCNC(=O)CC[C@H](NC(=O)CCCCCCCCCCCCCCCCCCC(=O)O)C(=O)O)NC(=O)[C@@H](NC(=O)[C@H](CC(=O)O)NC(=O)[C@H](CC(C)C)NC(=O)[C@](C)(Cc1ccccc1)NC(=O)[C@H](CCCCN)NC(=O)[C@H](CO)NC(=O)[C@@H](NC(=O)[C@H](CC(=O)O)NC(=O)[C@H](CO)NC(=O)[C@@H](NC(=O)[C@H](Cc1ccccc1)NC(=O)[C@@H](NC(=O)CNC(=O)[C@H](CCC(N)=O)NC(=O)C(C)(C)NC(=O)[C@@H](N)Cc1c[nH]cn1)[C@@H](C)O)[C@@H](C)O)C(C)C)[C@@H](C)O)C(C)C)C(=O)N[C@@H](CC(C)C)C(=O)NC(C)(C)C(=O)N[C@H](C(=O)N[C@@H](CCC(=O)O)C(=O)O)[C@@H](C)O) [Peptide 488]
0.0736	0.232	H[Aib]QGTFTSDVSK[αMeF]LDTK([AEEA-AEEA-γGlu-C18 diacid])RARDFVRWLL[Aib]TE-OH (N-terminus assumed; SMILES CC(C)C[C@H](NC(=O)[C@H](Cc1c[nH]c2ccccc12)NC(=O)[C@H](CCCNC(=N)N)NC(=O)[C@@H](NC(=O)[C@H](Cc1ccccc1)NC(=O)[C@H](CC(=O)O)NC(=O)[C@H](CCCNC(=N)N)NC(=O)[C@H](C)NC(=O)[C@H](CCCNC(=N)N)NC(=O)[C@H](CCCCNC(=O)COCCOCCNC(=O)COCCOCCNC(=O)CC[C@H](NC(=O)CCCCCCCCCCCCCCCCC(=O)O)C(=O)O)NC(=O)[C@@H](NC(=O)[C@H](CC(=O)O)NC(=O)[C@H](CC(C)C)NC(=O)[C@](C)(Cc1ccccc1)NC(=O)[C@H](CCCCN)NC(=O)[C@H](CO)NC(=O)[C@@H](NC(=O)[C@H](CC(=O)O)NC(=O)[C@H](CO)NC(=O)[C@@H](NC(=O)[C@H](Cc1ccccc1)NC(=O)[C@@H](NC(=O)CNC(=O)[C@H](CCC(N)=O)NC(=O)C(C)(C)NC(=O)[C@@H](N)Cc1c[nH]cn1)[C@@H](C)O)[C@@H](C)O)C(C)C)[C@@H](C)O)C(C)C)C(=O)N[C@@H](CC(C)C)C(=O)NC(C)(C)C(=O)N[C@H](C(=O)N[C@@H](CCC(=O)O)C(=O)O)[C@@H](C)O) [Peptide 491]
0.339	0.169	H[Aib]QGTFTSDVSK[αMeF]LDTK([AEEA-AEEA-γGlu-C20 diacid])RAQDFVQWLL[Aib]E-OH (N-terminus assumed; SMILES CC(C)C[C@H](NC(=O)[C@H](Cc1c[nH]c2ccccc12)NC(=O)[C@H](CCC(N)=O)NC(=O)[C@@H](NC(=O)[C@H](Cc1ccccc1)NC(=O)[C@H](CC(=O)O)NC(=O)[C@H](CCC(N)=O)NC(=O)[C@H](C)NC(=O)[C@H](CCCNC(=N)N)NC(=O)[C@H](CCCCNC(=O)COCCOCCNC(=O)COCCOCCNC(=O)CC[C@H](NC(=O)CCCCCCCCCCCCCCCCCCC(=O)O)C(=O)O)NC(=O)[C@@H](NC(=O)[C@H](CC(=O)O)NC(=O)[C@H](CC(C)C)NC(=O)[C@](C)(Cc1ccccc1)NC(=O)[C@H](CCCCN)NC(=O)[C@H](CO)NC(=O)[C@@H](NC(=O)[C@H](CC(=O)O)NC(=O)[C@H](CO)NC(=O)[C@@H](NC(=O)[C@H](Cc1ccccc1)NC(=O)[C@@H](NC(=O)CNC(=O)[C@H](CCC(N)=O)NC(=O)C(C)(C)NC(=O)[C@@H](N)Cc1c[nH]cn1)[C@@H](C)O)[C@@H](C)O)C(C)C)[C@@H](C)O)C(C)C)C(=O)N[C@@H](CC(C)C)C(=O)NC(C)(C)C(=O)N[C@@H](CCC(=O)O)C(=O)O) [Peptide 484]
0.42	0.166	H[Aib]QGTFTSDVSK[αMeF]LDLK([AEEA-AEEA-γGlu-C20 diacid])RAQDFVRWLL[Aib]E-OH (N-terminus assumed; SMILES CC(C)C[C@H](NC(=O)[C@H](CC(=O)O)NC(=O)[C@H](CC(C)C)NC(=O)[C@](C)(Cc1ccccc1)NC(=O)[C@H](CCCCN)NC(=O)[C@H](CO)NC(=O)[C@@H](NC(=O)[C@H](CC(=O)O)NC(=O)[C@H](CO)NC(=O)[C@@H](NC(=O)[C@H](Cc1ccccc1)NC(=O)[C@@H](NC(=O)CNC(=O)[C@H](CCC(N)=O)NC(=O)C(C)(C)NC(=O)[C@@H](N)Cc1c[nH]cn1)[C@@H](C)O)[C@@H](C)O)C(C)C)C(=O)N[C@@H](CCCCNC(=O)COCCOCCNC(=O)COCCOCCNC(=O)CC[C@H](NC(=O)CCCCCCCCCCCCCCCCCCC(=O)O)C(=O)O)C(=O)N[C@@H](CCCNC(=N)N)C(=O)N[C@@H](C)C(=O)N[C@@H](CCC(N)=O)C(=O)N[C@@H](CC(=O)O)C(=O)N[C@@H](Cc1ccccc1)C(=O)N[C@H](C(=O)N[C@@H](CCCNC(=N)N)C(=O)N[C@@H](Cc1c[nH]c2ccccc12)C(=O)N[C@@H](CC(C)C)C(=O)N[C@@H](CC(C)C)C(=O)NC(C)(C)C(=O)N[C@@H](CCC(=O)O)C(=O)O)C(C)C) [Peptide 486]
